# Results as given in the supplement of paper PMC7125110.
# ± gives the standard error. Fewer inactive variants are shown than the library holds.
# B1: glmS ribozyme (parent)
# chain: AUAAAAGCGCCAGAACUACAGAAAUGUAGUUGACGAGGAGGAGGUUUAUCGAAUUUUCGGCGGAUGCCUCCAAA
# Variants of: B1
# Assay: self-cleavage kobs at 2500 uM GlcN6P; higher = faster cleavage; RNA array
# Conditions: with glucosamine-6-phosphate
# Procedure, shortened: (§1)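 Tracking of barcoded ribozyme variants used a hybridised Cy3 probe at 37 °C, after in situ transcription by E. coli RNA polymerase on sequenced MiSeq chips. The flowed solution held 40 μM to 10 mM glucosamine-6-phosphate in HEPES/KCl/Mg(OAc)2 buffer, and imaging ran over ~14 h. kobs was taken from exponential decay fits of normalised per-tile medians, and kcat and KM from weighted Michaelis–Menten fits.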
row,Variant,self-cleavage kobs at 2500 uM GlcN6P
1,G32A G40A U69G,< 1e-05 s⁻¹
2,G35C A39U G59A,< 1e-05 s⁻¹
3,G32U G66A C70A,0.00086 ± 0.00036 s⁻¹
4,C16U A39G A48C,0.000168 ± 5e-05 s⁻¹
5,A33G G44A U49G,< 1e-05 s⁻¹
6,G29U G40A U65A,3.42e-05 ± 1.6e-05 s⁻¹
7,U31G U54A C68U,0.000161 ± 5.7e-05 s⁻¹
8,U30C G35C U49A,< 1e-05 s⁻¹
9,C16A G43A C58U,< 1e-05 s⁻¹
10,A33C G35A U56A,< 1e-05 s⁻¹
11,A33G A42U C70U,< 1e-05 s⁻¹
12,G29U A33C G44C,0.000325 ± 0.00014 s⁻¹
13,A15G G37U C61A C68A C70G,4.28e-05 ± 2e-05 s⁻¹
14,G35U A36G U45C U65G,< 1e-05 s⁻¹
15,A33C G51A U54C,< 1e-05 s⁻¹
16,C16U G29C U55A,0.00365 ± 0.00064 s⁻¹
17,G29A U57G C70G,0.000123 ± 5e-05 s⁻¹
18,G29U G32C U56A,7.28e-05 ± 1.4e-05 s⁻¹
19,A33C G37U U57A G59U,< 1e-05 s⁻¹
20,C16G U49G U55A,5.61e-05 ± 2.1e-05 s⁻¹
21,G29C G51U C67G,5.96e-05 ± 2.8e-05 s⁻¹
22,C16U U30C G35C U45A U55G G59U,< 1e-05 s⁻¹
23,G35U G40A G41U U45G A53G,< 1e-05 s⁻¹

row,Variant,self-cleavage kobs at 2500 uM GlcN6P
1,A33C G40A A52U C61G,< 1e-05 s⁻¹
2,C16G G43U G62A,< 1e-05 s⁻¹
3,U30C U47A C70A,8.14e-05 ± 3.8e-05 s⁻¹
4,G29U G44U G59U C67A,< 1e-05 s⁻¹
5,U30G G35A G43C,< 1e-05 s⁻¹
6,G35U A48G C50G,0.000328 ± 0.00011 s⁻¹
7,A15G U56G C58U,3.75e-05 ± 1.4e-05 s⁻¹
8,C34G U57G C70G,0.00021 ± 4.8e-05 s⁻¹
9,C34A C68G,< 1e-05 s⁻¹
10,G35C G43U U69G,< 1e-05 s⁻¹
11,C16G A52G U55G,9.56e-05 ± 4.1e-05 s⁻¹
12,G32U G44C U47G,< 1e-05 s⁻¹
13,C34G G35C G66A,< 1e-05 s⁻¹
14,G32C A36G U47C,< 1e-05 s⁻¹
15,U30A G32C A39G,9.38e-05 ± 3.4e-05 s⁻¹
16,G29A U31A G38C,< 1e-05 s⁻¹
17,G29U U31A U69G C70A,8.63e-05 ± 2.8e-05 s⁻¹
18,C16A A39G U69G,0.000118 ± 3.8e-05 s⁻¹
19,A33C G51A A53U,< 1e-05 s⁻¹
20,A15U A48G G51U,< 1e-05 s⁻¹
21,U31G A36U C50A C71G,0.000265 ± 0.00012 s⁻¹
22,G35A A42G U45G,< 1e-05 s⁻¹
23,A15G U45C U65G,0.000117 ± 3.1e-05 s⁻¹

row,Variant,self-cleavage kobs at 2500 uM GlcN6P
1,U30G U31C U47C G66A,2.71e-05 ± 1.2e-05 s⁻¹
2,U31A A39U C70G,0.000232 ± 7.5e-05 s⁻¹
3,U30A C58A C67U,4.25e-05 ± 1.9e-05 s⁻¹
4,G32U A39U C50A,< 1e-05 s⁻¹
5,G32C G37U C70G,9.68e-05 ± 4.2e-05 s⁻¹
6,U31G G38U A42U C67U,< 1e-05 s⁻¹
7,G35C U47G C50G G66A,7.72e-05 ± 2.7e-05 s⁻¹
8,U31A C34A C71U,< 1e-05 s⁻¹
9,A33C C50U U56C,< 1e-05 s⁻¹
10,A33G G35A G44U G59C C70U,< 1e-05 s⁻¹
11,G32C G35C U56C,< 1e-05 s⁻¹
12,G29U U55C G60C C68G,< 1e-05 s⁻¹
13,A15U G44A G51A A53U,< 1e-05 s⁻¹
14,U31G G44C G59C,< 1e-05 s⁻¹
15,G32U G37C G43U,< 1e-05 s⁻¹
16,A15G G38A A48U,< 1e-05 s⁻¹
17,C34U A39C C68U,< 1e-05 s⁻¹
18,G32U C34U A42G U46C A64C,< 1e-05 s⁻¹
19,G32C U54C G63U,< 1e-05 s⁻¹
20,A15G G32A G35U A52C,< 1e-05 s⁻¹
21,U30A G40C A53G U56C,< 1e-05 s⁻¹
22,C16U C34G C50G,0.00012 ± 5e-05 s⁻¹
23,C19A C34A,< 1e-05 s⁻¹

row,Variant,self-cleavage kobs at 2500 uM GlcN6P
1,U30C G44U U45G U69G,< 1e-05 s⁻¹
2,G32U G38U C67U,< 1e-05 s⁻¹
3,A15G G44U C50U A64U,< 1e-05 s⁻¹
4,C34U G35A,< 1e-05 s⁻¹
5,A15U G32A A39U C71U,0.000236 ± 0.00011 s⁻¹
6,G29A G41U C68U,< 1e-05 s⁻¹
7,A15U G29C C50U,< 1e-05 s⁻¹
8,A15U U30C U31A,0.0213 ± 0.0088 s⁻¹
9,U31G G44U G51C C58U G63U,< 1e-05 s⁻¹
10,C16G U30A A42C U69G,0.000262 ± 6.8e-05 s⁻¹
11,G32C A36C A39U U69G,< 1e-05 s⁻¹
12,A33C A39G C70A,< 1e-05 s⁻¹
13,G32U A48U G51C,< 1e-05 s⁻¹
14,C16A G37C U55C,< 1e-05 s⁻¹
15,G32C G37A A42C A53C,< 1e-05 s⁻¹
16,C16G G43A A48U,< 1e-05 s⁻¹
17,G29C G40C U54A,6.31e-05 ± 2.5e-05 s⁻¹
18,G32C C58U U65G,< 1e-05 s⁻¹
19,U31C G35A C71U,< 1e-05 s⁻¹
20,C16U A52G A53G C61U,< 1e-05 s⁻¹
21,G32C U65G C68G,< 1e-05 s⁻¹
22,U31C C34U U69C,< 1e-05 s⁻¹
23,U31C U56G C67A,6.88e-05 ± 1.8e-05 s⁻¹

row,Variant,self-cleavage kobs at 2500 uM GlcN6P
1,A33C G37C U55C,< 1e-05 s⁻¹
2,G35A A52U A53G C70U,< 1e-05 s⁻¹
3,U31A U47C U56C,0.000498 ± 0.00011 s⁻¹
4,G29C C61G G62A C70G,0.000307 ± 0.00012 s⁻¹
5,U30G U31A G35A A39G G51C G59A,< 1e-05 s⁻¹
6,C16A A39C A42U G51C C61G,< 1e-05 s⁻¹
7,C16U A53U A64U,4.5e-05 ± 2.3e-05 s⁻¹
8,G29C U31A,0.000502 ± 0.0001 s⁻¹
9,C16G U30C G32C C58G,5.09e-05 ± 2.2e-05 s⁻¹
10,C16A G32A G37U,< 1e-05 s⁻¹
11,U31G U56C G62A,< 1e-05 s⁻¹
12,G35C A42U U55A C58G,< 1e-05 s⁻¹
13,G35C G44U A52G U54A C67U,< 1e-05 s⁻¹
14,U31G C68U C71U,7.95e-05 ± 3.1e-05 s⁻¹
15,A15U A48C G59A G60U,< 1e-05 s⁻¹
16,C16G A39C C61U G63C,< 1e-05 s⁻¹
17,C16U A39U G44U C67A,0.0154 ± 0.0045 s⁻¹
18,C16U U30C C50A,< 1e-05 s⁻¹
19,A33G A52G G63A,< 1e-05 s⁻¹
20,G32U A53C U55A,5.38e-05 ± 1.8e-05 s⁻¹
21,A15G A39U G41A,0.000369 ± 0.0001 s⁻¹
22,U30G C58G G60U,< 1e-05 s⁻¹
23,C16A G43U A53U G60A C68A,< 1e-05 s⁻¹

row,Variant,self-cleavage kobs at 2500 uM GlcN6P
1,A24C G29U A64G,0.000837 ± 0.00014 s⁻¹
2,U31G G32C G66A,0.000109 ± 2.1e-05 s⁻¹
3,A15G C34A G63A,< 1e-05 s⁻¹
4,C16G G40U U69G,< 1e-05 s⁻¹
5,G32U U55C,0.000307 ± 7.3e-05 s⁻¹
6,G35A C50A U55C G62A A64U,< 1e-05 s⁻¹
7,C16G G40U U55A G60U,0.000989 ± 0.00047 s⁻¹
8,U30C U55C U56G U69C,< 1e-05 s⁻¹
9,G29U C34U U55G C67U,< 1e-05 s⁻¹
10,G29A A48U A53U C58A G59U,< 1e-05 s⁻¹
11,U31C G38A U47G G51C,< 1e-05 s⁻¹
12,A33U A39C G62C,< 1e-05 s⁻¹
13,C16G G40U G41U,< 1e-05 s⁻¹
14,A36C A39U G40C A42G U46C U69G,< 1e-05 s⁻¹
15,U30G U46G C58U,< 1e-05 s⁻¹
16,A33C C68G C70U,< 1e-05 s⁻¹
17,C34U G35A G44C U54A U65G,< 1e-05 s⁻¹
18,G32C A33C U49G,< 1e-05 s⁻¹
19,C16U G37U A42G,< 1e-05 s⁻¹
20,A33G A52G G62A,< 1e-05 s⁻¹
21,A15U G51U U65A,< 1e-05 s⁻¹
22,C34A A48U C68A C71G,< 1e-05 s⁻¹
23,G32U U46C,3.86e-05 ± 1.4e-05 s⁻¹

row,Variant,self-cleavage kobs at 2500 uM GlcN6P
1,C16G A39G C71U,0.0054 ± 0.0016 s⁻¹
2,G29A U30C A48U C58U,< 1e-05 s⁻¹
3,C16A C34A C70U,< 1e-05 s⁻¹
4,G32U G41C G59A,< 1e-05 s⁻¹
5,G26U C58U,6.46e-05 ± 1.7e-05 s⁻¹
6,C16G A36U G60A,< 1e-05 s⁻¹
7,C16A A33U A52U,< 1e-05 s⁻¹
8,U30G A42G U65G C67U,0.000104 ± 3.7e-05 s⁻¹
9,U31A A52U,2.52e-05 ± 1.1e-05 s⁻¹
10,A15U U30G C68G,4.51e-05 ± 1.8e-05 s⁻¹
11,U31C A33U U46A U57C C70U C71G,< 1e-05 s⁻¹
12,A33G G44U G63U,< 1e-05 s⁻¹
13,C34U G63U A64G,0.000111 ± 3.8e-05 s⁻¹
14,C19A G32C,4.68e-05 ± 1.6e-05 s⁻¹
15,C16G U30G A39U,4.31e-05 ± 2e-05 s⁻¹
16,A15G G44U A64U U65G,< 1e-05 s⁻¹
17,G29U G32C A53G C70U,6e-05 ± 1.4e-05 s⁻¹
18,C34A G35A C67G C68A C71A,0.000155 ± 6.4e-05 s⁻¹
19,C16U U47A C58G,2.28e-05 ± 1.1e-05 s⁻¹
20,C16U G40A U69C,3.52e-05 ± 1.7e-05 s⁻¹
21,U31G A39U A64C,6.17e-05 ± 2.3e-05 s⁻¹
22,A33U G51U C67U,< 1e-05 s⁻¹

# Variants of: B1
# Assay: self-cleavage kobs at 10000 uM GlcN6P; higher = faster cleavage; RNA array
# Conditions: with glucosamine-6-phosphate
# Procedure, shortened: as §1
row,Variant,self-cleavage kobs at 10000 uM GlcN6P
1,G32A G40A U69G,< 1e-05 s⁻¹
2,C16U A39G A48C,0.000325 ± 9.5e-05 s⁻¹
3,G35U A36G U45C U65G,< 1e-05 s⁻¹
4,C34U G35A,< 1e-05 s⁻¹
5,A15U G32A A39U C71U,0.000208 ± 6.3e-05 s⁻¹
6,G32C A36C A39U U69G,< 1e-05 s⁻¹
7,U31A U47C U56C,0.000333 ± 6.1e-05 s⁻¹
8,G29C U31A,0.000731 ± 0.00017 s⁻¹
9,G32U U55C,0.000584 ± 6.9e-05 s⁻¹
10,G35A C50A U55C G62A A64U,< 1e-05 s⁻¹
11,C34A A48U C68A C71G,< 1e-05 s⁻¹
12,G32U U46C,0.000136 ± 1.8e-05 s⁻¹
13,G26U C58U,7.64e-05 ± 1.4e-05 s⁻¹
14,U31A A52U,8.67e-05 ± 1.5e-05 s⁻¹
15,C16G U30G A39U,0.000103 ± 2.8e-05 s⁻¹
16,U31G A39U A64C,4.91e-05 ± 1.3e-05 s⁻¹
